Literature values as cited in paper PMC4962041.
pKd: −log10 of the molar value.

Biological target: ubiquitin (UniProt P0CG48)

Chain of yDdi1 UBL (P40087 1-80): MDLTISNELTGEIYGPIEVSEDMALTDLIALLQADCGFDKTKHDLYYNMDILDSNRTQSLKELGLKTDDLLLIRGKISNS

pKd: 4.35
Substance: yDdi1 UBL (from UniProt P40087)
